Source: PMC12838881, “Engineering Single-Chain Antibody Fragment (scFv) Variants Targeting A Disintegrin and Metalloproteinase-17 (ADAM-17)” (Biomolecules, 2025)
Values belong to the binder of their own block, whether it stands above or below them.

Target: T1, a disintegrin and metalloproteinase-17 catalytic domain (6xHis-ADAM-17cd) (UniProt P78536)
T1 construct: ADAM-17 (TACE), catalytic domain; also called TACE; tumor necrosis factor-α-converting enzyme; source: bought: Enzo Life Sciences
Test: flow cytometry on cells; scFv variants or TIMP-3 displayed on yeast; soluble 6xHis-ADAM-17cd or MMP-9cd at 100 nM (legend and results; the methods say 150 nM); PBSA pH 7.4; binding read with anti-6xHis Alexa Fluor 647, expression with anti-c-Myc and Alexa Fluor 488; median binding normalised to expression
Settings: one partner purified

T1 sequence (P78536 215-474): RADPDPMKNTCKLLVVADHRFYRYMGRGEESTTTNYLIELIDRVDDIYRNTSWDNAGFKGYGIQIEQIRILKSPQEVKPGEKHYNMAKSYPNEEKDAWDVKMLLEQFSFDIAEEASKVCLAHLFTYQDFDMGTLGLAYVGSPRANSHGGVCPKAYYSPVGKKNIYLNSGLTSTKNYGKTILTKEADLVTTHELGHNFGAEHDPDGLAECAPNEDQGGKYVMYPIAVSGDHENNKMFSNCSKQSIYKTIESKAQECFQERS

binding result: binds
B1: SynAb-A6 scFv displayed on yeast (scFv, V domains shown)
VH: EVQLVQSGAEVKKPGESLKISCKGSGYSFTSYWIGWVRQMPGKGLEWMGIIYPGDSDTRYSPSFQGQVTISADKSISTAYLQWSSLKASDTAVYYCARTDLHVHVYYFDYWGQGTLVTVSS
VL: not shown
notes: light chain variable domain as printed; glycine-rich peptide linker between VL and VH; heavy chain variable domain as printed; CDR-H3 TDLHVHVYY; VL-VH orientation; source: yeast surface display, S. cerevisiae RJY100, pCTCON2 vector; not shown: Aga2p, N-terminal, kept

binding per expression signal, fold of TIMP-3: ≤ 3 fold
B2: SynAb-A7 scFv displayed on yeast (scFv, V domains shown)
VH: EVQLVQSGAEVKKPGESLKISCKGSGYSFTSYWIGWVRQMPGKGLEWMGIIYPGDSDTRYSPSFQGQVTISADKSISTAYLQWSSLKASDTAVYYCARKKEYYSRFDYWGQGTLVTVSS
VL: not shown
notes: light chain variable domain as printed; glycine-rich peptide linker between VL and VH; heavy chain variable domain as printed; CDR-H3 KKEYYSR; VL-VH orientation; source: yeast surface display, S. cerevisiae RJY100, pCTCON2 vector; not shown: Aga2p, N-terminal, kept

binding result: binds
B3: SynAb-A9 scFv displayed on yeast (scFv, V domains shown)
VH: QLQLQESGPGLVKPSETLSLTCTVSGGSISSSSYYWGWIRQPPGKGLEWIGSIYYSGSTYYNPSLKSRVTISVDTSKNQFSLKLSSVTAADTAVYYCARPGGYYDMEYLYFDYWGQGTLVTVSS
VL: not shown
notes: light chain variable domain as printed; glycine-rich peptide linker between VL and VH; heavy chain variable domain as printed; CDR-H3 PGGYYDMEYLY; VL-VH orientation; source: yeast surface display, S. cerevisiae RJY100, pCTCON2 vector; not shown: Aga2p, N-terminal, kept
